Results from the supplement of paper PMC9112550, “Optimization of the antimicrobial peptide Bac7 by deep mutational scanning” (BMC Biology, 2022).

These sequences were tested on Escherichia coli TOP10 (assay: shrunken log2 fold change of peptide-encoding DNA abundance (4.5 h post-induction vs induction); higher = less antimicrobial activity (less host growth inhibition)). Details: time post-induction: 4.5 h; library: site-saturation at positions 5, 18, 19, 20.
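Also: peptides expressed intracellularly from a pBAD plasmid library in pooled LB shake-flask culture, induced with 0.3% L-arabinose, DNA abundance read by NGS, three biological replicates, DESeq2 with apeglm shrinkage.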

| Sequence | shrunken log2 fold change |
| --- | --- |
| RRIRNRPPRLPRPRPRPIQGPRP | -0.105 |
| RRIRWRPPRLPRPRPRPSYCPRP | 0.366 |
| RRIRTRPPRLPRPRPRPYGDPRP | 0.00839 |
| RRIRARPPRLPRPRPRPHHFPRP | -0.0814 |
| RRIRTRPPRLPRPRPRPIFIPRP | -0.383 |
| RRIRRRPPRLPRPRPRPLIIPRP | -0.376 |
| RRIRARPPRLPRPRPRPIDFPRP | 0.125 |
| RRIRDRPPRLPRPRPRPPNKPRP | 0.0523 |
| RRIRSRPPRLPRPRPRPSKTPRP | -0.159 |
| RRIRFRPPRLPRPRPRPHRPPRP | -0.157 |
| RRIRMRPPRLPRPRPRPAVRPRP | 0.835 |
| RRIRNRPPRLPRPRPRPVWWPRP | 0.259 |
| RRIRVRPPRLPRPRPRPSGDPRP | -0.251 |
| RRIRMRPPRLPRPRPRPRMTPRP | 1.84 |
| RRIRWRPPRLPRPRPRPPAMPRP | 1.57 |
| RRIRFRPPRLPRPRPRPFYVPRP | -0.417 |
| RRIRKRPPRLPRPRPRPQRCPRP | 0.269 |
| RRIRQRPPRLPRPRPRPNMLPRP | -0.285 |
| RRIRIRPPRLPRPRPRPVTEPRP | -0.109 |
| RRIRPRPPRLPRPRPRPQMCPRP | -0.101 |
| RRIRMRPPRLPRPRPRPAMIPRP | -0.0626 |
| RRIRDRPPRLPRPRPRPVKAPRP | 0.026 |
| RRIRVRPPRLPRPRPRPFIIPRP | -0.442 |
| RRIRPRPPRLPRPRPRPGCSPRP | 0.266 |
| RRIRNRPPRLPRPRPRPTKDPRP | -0.197 |

| Sequence | shrunken log2 fold change |
| --- | --- |
| RRIRYRPPRLPRPRPRPVLTPRP | -0.0151 |
| RRIRGRPPRLPRPRPRPWPDPRP | 0.194 |
| RRIRPRPPRLPRPRPRPHAPPRP | 0.082 |
| RRIRHRPPRLPRPRPRPGNTPRP | -0.319 |
| RRIRPRPPRLPRPRPRPMIWPRP | -0.136 |
| RRIRVRPPRLPRPRPRPIYGPRP | -0.0564 |
| RRIRLRPPRLPRPRPRPPYCPRP | -0.0882 |
| RRIRARPPRLPRPRPRPANAPRP | 0.301 |
| RRIRRRPPRLPRPRPRPAPMPRP | 0.957 |
| RRIRTRPPRLPRPRPRPLGIPRP | -0.638 |
| RRIRTRPPRLPRPRPRPGIEPRP | -0.278 |
| RRIRCRPPRLPRPRPRPDIWPRP | 0.116 |
| RRIRTRPPRLPRPRPRPAMRPRP | 0.445 |
| RRIRVRPPRLPRPRPRPPHCPRP | 0.178 |
| RRIRNRPPRLPRPRPRPFRQPRP | 0.0231 |
| RRIRIRPPRLPRPRPRPHPLPRP | -0.516 |
| RRIRWRPPRLPRPRPRPMVDPRP | -0.0461 |
| RRIRFRPPRLPRPRPRPMKPPRP | -0.0229 |
| RRIRKRPPRLPRPRPRPNVTPRP | 0.138 |
| RRIRSRPPRLPRPRPRPLGAPRP | 0.295 |
| RRIRLRPPRLPRPRPRPYCNPRP | -0.963 |
| RRIRRRPPRLPRPRPRPQFGPRP | -0.00169 |
| RRIRHRPPRLPRPRPRPLLAPRP | 0.299 |
| RRIRCRPPRLPRPRPRPMYTPRP | -0.551 |
| RRIRIRPPRLPRPRPRPVCGPRP | -0.0405 |

| Sequence | shrunken log2 fold change |
| --- | --- |
| RRIRTRPPRLPRPRPRPPREPRP | 0.141 |
| RRIRLRPPRLPRPRPRPFNKPRP | -0.324 |
| RRIRVRPPRLPRPRPRPNTLPRP | -0.478 |
| RRIRYRPPRLPRPRPRPDKQPRP | 0.0233 |
| RRIRRRPPRLPRPRPRPAQVPRP | -0.0303 |
| RRIRGRPPRLPRPRPRPEMDPRP | 0.982 |
| RRIRSRPPRLPRPRPRPNTAPRP | -0.0399 |
| RRIRARPPRLPRPRPRPWHCPRP | -0.16 |
| RRIRFRPPRLPRPRPRPFENPRP | -0.0822 |
| RRIRLRPPRLPRPRPRPQSLPRP | -0.0995 |
| RRIRDRPPRLPRPRPRPQIMPRP | 0.0478 |
| RRIRQRPPRLPRPRPRPKHPPRP | -0.0928 |
| RRIRSRPPRLPRPRPRPVHGPRP | -0.215 |
| RRIRMRPPRLPRPRPRPQTIPRP | 0.414 |
| RRIRERPPRLPRPRPRPPRYPRP | -0.202 |
| RRIRMRPPRLPRPRPRPPWWPRP | 1.01 |
| RRIRWRPPRLPRPRPRPYMAPRP | -0.247 |
| RRIRLRPPRLPRPRPRPNIRPRP | -0.585 |
| RRIRFRPPRLPRPRPRPIWQPRP | -0.146 |
| RRIRIRPPRLPRPRPRPLHDPRP | 0.181 |
| RRIRVRPPRLPRPRPRPKQAPRP | 0.243 |
| RRIRERPPRLPRPRPRPSKWPRP | -0.241 |
| RRIRLRPPRLPRPRPRPPQMPRP | 0.304 |
| RRIRPRPPRLPRPRPRPLTTPRP | 0.135 |
| RRIRVRPPRLPRPRPRPWSIPRP | -0.0192 |

| Sequence | shrunken log2 fold change |
| --- | --- |
| RRIRWRPPRLPRPRPRPNSMPRP | -0.114 |
| RRIRTRPPRLPRPRPRPDIIPRP | -0.232 |
| RRIRKRPPRLPRPRPRPFDTPRP | -0.0262 |
| RRIRCRPPRLPRPRPRPKDAPRP | 0.183 |
| RRIRIRPPRLPRPRPRPAGSPRP | -0.0214 |
| RRIRRRPPRLPRPRPRPPPNPRP | 0.951 |
| RRIRTRPPRLPRPRPRPPSRPRP | 0.191 |
| RRIRERPPRLPRPRPRPGSNPRP | -0.0638 |
| RRIRQRPPRLPRPRPRPAMLPRP | 0.0266 |
| RRIRVRPPRLPRPRPRPTHVPRP | 0.0149 |
| RRIRGRPPRLPRPRPRPGPIPRP | 0.619 |
| RRIRVRPPRLPRPRPRPRCIPRP | -0.661 |
| RRIRARPPRLPRPRPRPGATPRP | 0.959 |
| RRIRFRPPRLPRPRPRPTRNPRP | 0.184 |
| RRIRRRPPRLPRPRPRPIYTPRP | -0.176 |
| RRIRERPPRLPRPRPRPQHVPRP | -0.356 |
| RRIRSRPPRLPRPRPRPDTYPRP | -0.713 |
| RRIRARPPRLPRPRPRPCMPPRP | -0.0783 |
| RRIRQRPPRLPRPRPRPTYKPRP | -0.549 |
| RRIRWRPPRLPRPRPRPDECPRP | -0.012 |
| RRIRNRPPRLPRPRPRPDRKPRP | -0.00776 |
| RRIRARPPRLPRPRPRPHCSPRP | -0.131 |
| RRIRPRPPRLPRPRPRPVKGPRP | 0.203 |
| RRIRIRPPRLPRPRPRPHDVPRP | 0.000407 |
| RRIRMRPPRLPRPRPRPWKKPRP | 0.234 |

| Sequence | shrunken log2 fold change |
| --- | --- |
| RRIRWRPPRLPRPRPRPNARPRP | 0.0903 |
| RRIRMRPPRLPRPRPRPMVWPRP | 1.09 |
| RRIRNRPPRLPRPRPRPPYAPRP | 0.161 |
| RRIRSRPPRLPRPRPRPESRPRP | -0.0244 |
| RRIRARPPRLPRPRPRPYPPPRP | -0.129 |
| RRIRNRPPRLPRPRPRPFWQPRP | 0.201 |
| RRIRVRPPRLPRPRPRPLEFPRP | -0.114 |
| RRIRTRPPRLPRPRPRPVCDPRP | 0.0701 |
| RRIRHRPPRLPRPRPRPIVNPRP | 0.114 |
| RRIRERPPRLPRPRPRPCLFPRP | -0.222 |
| RRIRWRPPRLPRPRPRPETHPRP | 0.756 |
| RRIRWRPPRLPRPRPRPSKVPRP | -0.04 |
| RRIRQRPPRLPRPRPRPYLYPRP | -0.838 |
| RRIRYRPPRLPRPRPRPAYGPRP | 3.33 |
| RRIRFRPPRLPRPRPRPIAIPRP | -0.149 |
| RRIRSRPPRLPRPRPRPGFNPRP | -0.038 |
| RRIRIRPPRLPRPRPRPSECPRP | -0.00498 |
| RRIRERPPRLPRPRPRPLWYPRP | -0.287 |
| RRIRWRPPRLPRPRPRPDYMPRP | -0.0885 |
| RRIRTRPPRLPRPRPRPVGCPRP | 0.304 |
| RRIRMRPPRLPRPRPRPIYDPRP | -0.265 |
| RRIRQRPPRLPRPRPRPDASPRP | 0.0949 |
| RRIRNRPPRLPRPRPRPYNDPRP | -0.581 |
| RRIRIRPPRLPRPRPRPCRIPRP | -0.0204 |
| RRIRLRPPRLPRPRPRPAMVPRP | 0.0527 |

| Sequence | shrunken log2 fold change |
| --- | --- |
| RRIRQRPPRLPRPRPRPQKQPRP | 0.057 |
| RRIRFRPPRLPRPRPRPKAHPRP | -0.0835 |
| RRIRQRPPRLPRPRPRPAHSPRP | 0.426 |
| RRIRMRPPRLPRPRPRPHKMPRP | 0.193 |
| RRIRGRPPRLPRPRPRPWLIPRP | -0.192 |
| RRIRCRPPRLPRPRPRPWQEPRP | -0.153 |
| RRIRCRPPRLPRPRPRPFDWPRP | -0.0737 |
| RRIRMRPPRLPRPRPRPTVNPRP | 0.177 |
| RRIRMRPPRLPRPRPRPINYPRP | -0.22 |
| RRIRYRPPRLPRPRPRPHNWPRP | -0.926 |
| RRIRLRPPRLPRPRPRPVRVPRP | 0.428 |
| RRIRTRPPRLPRPRPRPQAFPRP | 0.0884 |
| RRIRTRPPRLPRPRPRPDQPPRP | 0.00486 |
| RRIRPRPPRLPRPRPRPSLRPRP | 0.0129 |
| RRIRARPPRLPRPRPRPTDAPRP | 0.607 |
| RRIRERPPRLPRPRPRPRYLPRP | -0.452 |
| RRIRNRPPRLPRPRPRPRMLPRP | 0.132 |
| RRIRWRPPRLPRPRPRPRDIPRP | -0.244 |
| RRIRHRPPRLPRPRPRPPSQPRP | -0.232 |
| RRIRFRPPRLPRPRPRPFPSPRP | -0.179 |
| RRIRRRPPRLPRPRPRPWLAPRP | 0.35 |
| RRIRKRPPRLPRPRPRPNQLPRP | -0.33 |
| RRIRPRPPRLPRPRPRPLSYPRP | 0.0626 |
| RRIRLRPPRLPRPRPRPEGKPRP | -0.00133 |
| RRIRARPPRLPRPRPRPSEEPRP | 0.452 |
